Target: T1, HLA-A*02:01 (human)
T1 construct: monomers captured on streptavidin plates; also called MHC class I
Test: UV peptide exchange ELISA
Outline: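 Read-out is an ELISA on the UV-exchange reaction: monomers, diluted 100-fold, are captured on streptavidin and the β2m light chain is detected with 2 μg/ml HRP antibody and TMB at 450 nm.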

Row | Binder | peptide exchange yield [%]
1 | FIDEAYVEV | 20 to 50
2 | TMLLNIPLV | 20 to 50
3 | ILLDDTGLAYI | 50 to 75
4 | GLLDTQTSQVLTA | 20 to 50
5 | ALYDVFLEV | 20 to 50
6 | GLFPEHLIDV | 50 to 75
7 | GLVNDLARV | 20 to 50
8 | VLLSLLEKV | 20 to 50
9 | VLFSGALLGL | 20 to 50
10 | NLLETKLQL | 50 to 75
11 | LLLLDTVTMQV | 20 to 50
12 | QLLDETSAITL | 50 to 75
13 | YLDDLNEGVYI | 20 to 50
14 | ALADGVTMQV | 20 to 50
15 | ALGYFVPYV | 50 to 75
16 | YVIDQGETDVYV | 50 to 75
17 | YVYPQRLNFV | 50 to 75
18 | ALLPLSPYL | 50 to 75
19 | KLYDRILRV | 20 to 50
20 | KLGHTDILVGV | 20 to 50
21 | ILFRYPLTI | 50 to 75
22 | LLDAMNYHL | 20 to 50
23 | KLDDLTQDLTV | 20 to 50
24 | FLQAHLHTA | ≥ 75
25 | QLIPALAKV | 50 to 75

Row | Binder | peptide exchange yield [%]
26 | QLVPALAKV | 20 to 50
27 | YLFGERLLEC | 50 to 75
28 | ALFMKQIYL | 50 to 75
29 | AMLNEPWAV | 50 to 75
30 | ILLEHGADPNL | 50 to 75
31 | ILFANPNIFV | 50 to 75
32 | VLDDSIYLV | 20 to 50
33 | YLMDLINFL | 50 to 75
34 | KLAEGLDIQL | 50 to 75
35 | FMIDASVHPTL | 50 to 75
36 | KLLPLAGLYL | ≥ 75
37 | ALLELENSVTL | 50 to 75
38 | TLIEDEIATI | 20 to 50
39 | ALQNYIKEA | 20 to 50
40 | RLADKSVLV | 50 to 75
41 | KLLEEDGTIITL | 20 to 50
42 | AMFESSQNVLL | 20 to 50
43 | YLFEPLYHV | 50 to 75
44 | ALFQATAEV | ≥ 75
45 | KMLGIPISNILMV | 50 to 75
46 | SLLQDLVSV | 50 to 75
47 | GLLRDEALAEV | 50 to 75
48 | HLAEVSAEV | 50 to 75
49 | ALLPDLPAL | 50 to 75
50 | ILADIVISA | 50 to 75

Row | Binder | peptide exchange yield [%]
51 | SLLEQGLVEA | 20 to 50
52 | TLIEESAKV | 20 to 50
53 | IMEGTLTRV | 20 to 50
54 | SLQNHNHQL | 50 to 75
55 | SLVNVVPKL | 20 to 50
56 | RLLDMGETDLML | 50 to 75
57 | LLADVTHLL | 20 to 50
58 | SMAPGLVIQAV | 50 to 75
59 | LLAVIGGLVYL | 50 to 75
60 | ALLHPQGFEV | 20 to 50
61 | ALLENPKMEL | 50 to 75
62 | GLLGGGGVLGV | 50 to 75
63 | FLLDSSASV | 20 to 50
64 | FLLQQHLISA | 20 to 50
65 | YLLQEIYGI | 50 to 75
66 | YLAPELFVNV | 20 to 50
67 | KVSNSGITRV | 20 to 50
68 | HLYSSIEHLTT | 50 to 75
69 | LILDWVPYI | 50 to 75
70 | SLLEDKGLAEV | 20 to 50
71 | ALALGGIAVV | ≥ 75
72 | GLWEIENNPTV | 50 to 75
73 | SLLTEQDLWTV | 20 to 50

Reference: patent US20170037110A1 (IMMATICS BIOTECHNOLOGIES, published 2017)
